Assay results from the DeepSol protein solubility set.

Experiment: soluble on expression in E. coli; label from the status in PepcDB or PDB records

| Sequence | soluble on expression in E. coli |
| --- | --- |
| DDIEADHVGSYGIVVYQSPGDIGQYTFEFDGDELFYVDLDKKETIWMLPEFAQLRSFDPQGGLQNIATGKHNLGVLTKRSNSTPATNEAPQATVFPKSPVLLGQPNTLICFVDNIFPPVINITWLRNSKSVADGVYETSFFVNRDYSFHKLSYLTFIPSDDDIYDCKVEHWGLEEPVLKHWEP | soluble |
| KPKFFYIKSELNGKVLDIEGQNPAPGSKIITWDQKKGPTAVNQLWYTDQQGVIRSKLNDFAIDASHEQIETQPFDPNNPKRAWIVSGNTIAQLSDRDIVLDIIKSDKEAGAHICAWKQHGGPNQKFIIESE | soluble |
| MVLNIKRASSLDGATINVQDVLKPFDHQVGGHTPFTSLPNGHLLKPCEEREILFYQKMPKILKSIAPLCCSTIQGSSVSTLDDSCSNCRHHQLENVVIPESIEGSPILNKRKLSKNFIVLSDLTYRMKSPRILDLKLGTRQHGDQATVSKIACMTAKCQATTSATLGIRLCGMKIPFLEQNSQNFAPNFAPNSAAPNFAPKSEISINKYMGRSMDKTDLFLAVKQFFDVPEAVLEEVERRLLGIRDVLCGADGVRLFGASLLIVIESNFSDSQLPIDNLVRIKVVDFANATFGGLQGDSFYDGRDDGSILGLETLLEIVKGKN | not soluble |
| MPSSKTSARRAPSSPGASLWSLPLIRKLCCAPGCEELAPAGQAHCADHAAEAEARARSRKARAKAGAAAQAGAAFYATGRWRRARARFLAAHPLCADCAGLGLVVAAAEVDHIRPHRGDPGLMWDRANWQPLCRPCHSRKTAREVFHPPGGIAKSEGSARLEHHHHHH | not soluble |
| MSEHQSLPAPEASTEVRVAIVGVGNCASSLVQGVEYYYNADDTSTVPGLMHVRFGPYHVRDVKFVAAFDVDAKKVGFDLSDAIFASENNTIKIADVAPTNVIVQRGPTLDGIGKYYADTIELSDAEPVDVVQALKEAKVDVLVSYLPVGSEEADKFYAQCAIDAGVAFVNALPVFIASDPVWAKKFTDARVPIVGDDIKSQVGATITHRVLAKLFEDRGVQLDRTMQLNVGGNMDFLNMLERERLESKKISKTQAVTSNLKREFKTKDVHIGPSDHVGWLDDRKWAYVRLEGRAFGDVPLNLEYKLEVWDSPNSAGVIIDAVRAAKIAKDRGIGGPVIPASAYLMKSPPEQLPDDIARAQLEEFIIG | soluble |
| MSTKNRTRRTTTRNIRFPNQMIEQINIALDQKGSGNFSAWVIEACRRRLTSEKRAYTSIKSDEE | soluble |
| MQRNSENSKNGRRVSSSSYMSAAAAAGAAAALRLSVDARAGKEYTTQTHQRDKT | not soluble |
| PQEKVSRIHASSGTTGRPTVVGYTTGDLNNWADLVARSLRAGGVKPTDKVHVAYGYGLFTGGLGAHYGAERLGCTVIPMSGGMTDRQIQLIEDFEPDAIMVTPSYMLTIVDAMIKKGIDPSKTSLRTGVFGAEPWTEEMRTELEKQLNMDAVDIYGLSEVMGPGVAMECVDTKDGLHI | not soluble |
| MKEFIIKANKAVTNGEINLKDLPGSSGRLDLLCRCVNSAFFLSHDMRRDTIFYSVNYGSPNPPVALKFVGSELKRVSPDERSIALFIKKALEKDASELWKESTSGIYSSKREFRDIILEKKNEGKRIFYLHLNGKPLEDFEFKNQDDEDFLFVLGDHIGIGDEDEEFLEEIGAEKISLSPLELHADHCIILVHNILDRLK | not soluble |
| MFGWRGRIGLIVPSSNTTMEMELHSFLPEGVSLHTSRMPLKSITDEELFKMNSYAIEAASLLADAGVEVIAFGCSSGSFIGGQDFEKELEMKIEEEVNIETFTTSTAVLEALDVLDAQSLLIVTPYSDEINQKEKEFLEGNGFEVLDIKGLNLTDNLEIGKLEPYVVYRLAKAMFAGDADAIFISCTNLRTFEIIEKLERDLGVPVITSNQATLWMALRQIDVRDQLPLGKLLREY | soluble |
| MTELEAAMGMIIDVFSRYSGSEGSTQTLTKGELKVLMEKELPGFLQSGKDKDAVDKLLKDLDANGDAQVDFSEFIVFVAAITSASHKYFEKTGLK | soluble |
| MCMASKVLNKVMGIIGLNDEDFDEYEDEVMEEKAIARENSYDYDEKLNDKNSSNSNNKVVNIHTASSVKVVIVKPKDYDEATQIDDLKNRKIVVVNVTDLEPKTAQRLLDFMGGASYVLNGELLEIDKGVYLLSPSNVDISRDLKNDLASKSIFNWSKLEHHHHHH | not soluble |
| MPKSLYNYHEFIHLSHDGRIPFEKIEVPKNAILLNNSADLDNYVYLIIDGYVALFLNDGKEQPKIYSIQGEGAFLNYFTLLDHSINRFRYKTLSKCFLYRYSKLDIEYFLSMFPENFGFQFFIMKNQTTHIYFKSLMASSPASEKLMLTFSNLARLHGIPTEDDTVILPPAIKTSHLLSYSNLSKSCFYKDLQYLKTTNQIEKQDNSWIIHNKELNLMLQNGETYI | not soluble |
| MTELSAFPITRKWPAKHPERLQLYSLPTPNGVKVSIMLEEIGLAYEAHKVSFDNDDQLSPEFISLSANNKIPAILDPNGPGGQPLALFESGAILQYLAEKSGQLLSQDPAQRYQTLQWLMFQMGGIGPMFGQVGFFHFFAGKEYEDKRPRDRYVNESKRLLGVLDRHLKGRQWMAEEYSIADIAIFPWVRNLVERYNARDLVGFDQFKEVQRVLANFLERPAVQRGLKIPG | not soluble |
| MSKTRMEKLKTLKTIAETLNQGHDIKATLDEVLKELLSLTNLQSGWIFLIEEDGSYTLAADAYLPPALSRKEKVLMCEGECYCLTKFNNGGLRKAANIMNCKRIESAENLHCFDTEGITHHATVPLEDGDRRFGLLNVAAAGKTMFDEEELHLLESVAFQIGTAIQRMRLSE | soluble |
| MRKLKYQRDFFPLLHLNYGSNWRCGMDRIAYFKSLLEKNPDNPMVHYSLGLEYFKVKDYENAIKHLERYLELQEDEGAAYRTLAKCYEELGEFQKAIEVLEEGIRQAMKYNHPSMAQEYQQWIEELKGMAF | soluble |
| ERTRAEQKLAETNVFLNSVVDGVAEPMVVVGLDRRVIMTNRAARDFFQISDVGSDEACHRLIHHRDTPCVREEGMQCPLLDVRTAKRPVIATQEHRDRSGDKRVVEVMTSPLLGSDGVAIGIIEAFRDIT | not soluble |
| MVRAPIDGIVANRSAHTGSWVEGGTSLVSLVPVSELWVDANYKENQIAGMKPGMKAEIRADILKGEVFHGHIESLSPATGASFSLIPIENATGNFTKIVQRVPVRIAFDDAKELKQLLRPGLSVTVSVDER | not soluble |
| MAHHHHHHMLQPFQLLQSLVSPIVGVSAKVTVGNQAKDDFLLKTLAIDKKKLDPSYFEKYDNLKWEGKIIAIGDIHGDMESLKLILRHANLINENDEWIAENVLLVQVGDVLDRGIYGPLIYNYLFKLQKEAPLKKSKVLLIMGNHEQLNMCGYFNYVNQKEVEIFFKNNFNYRLFHFVSTAGEYFKKLIRLPVIAKVNDILFVHAGISKQISSLSLQTIRLKTRLQIENMCKILSYDKSRDYVNREGVLWYDHVSRTAPYDEKQACAILSHVFNKYGAKHLVVGHTKQMTHEISTYCNGGLFLIDTGMSLFMNNGQPYPNYLVAENGIFKSVHLNVEVNKKSKYCDSLEIELRSPNKQSFCIHAKETLLSPPNGG | not soluble |
| MSLAYTKKKYTPKTKEQIKEETKEIMDKVLTDITKYYRSPEDMLELANFMAKFSNYSPKNMQLIRSQFENAYACANFKAFKDAGFHVNKGETAMKVFHPYVKEYVRDPRTKLAIPLGKLTEEQKKQVKNGELKVEKQTNYYLKATAFDISQTNAKPEDLPKIFPNRQFNFEINDEGHHHHHH | not soluble |
| MIDVHCHLVDNKFKEDLDDVIGHAHATGIQKMINFPEFESQFEKSIGISKKWPGSVYTGIGIHPIQKRGKSAKMKHISKMEQFFVEHERDIICVGECGLDHTISQFKLTTEDFEEQETVFKWQIDLAKHFEKPLNVHSRSAARRTIEILLECHVAPDQVVLHAFDGTPGDLKLGLEAGYLFSIPPSFGKSEETTQLIESIPLSQLLLETDSPALGPEKGCKNVPANLRISAEIVAKIKKLEIDDIISATSTNANRIFKF | soluble |
| MSLGLVLSTNVAHIQQDPGGDDRISGINKLPVATGIDVFIPGPNYGDGSGVVGDAIGDSLHHGGAHKAIYAYSREELDFFDPTYRNGYFGENLTTSGIVLEDLLINQQVRIGTTLLEVSIPRRPCRTFAHWLDIKGWLKTFTQRGLPGSYFRVIEEGHINPGDPIEVLQAPDHDITMSMAFRAKMGNKDLARRVVAANCLPARYHEELLKLIEGHHHHHH | not soluble |
| MAHHHHHHMSDSALLEGVSFPVEPFAEKHRKILALLAHAATQAVNTRSNEVVFDVLCSSEPSLARLYPEVAVLQGVHQIRRVLRNLQDSQPHVRPMYLKMIVDSLKDMNEMLPDPLLLVIARTVEILEGEGRGFRELEPHLLDLVEYIQVVILRETKLLQCRGTLITLRLRGVPPFVASETESTT | not soluble |
| SKIYDNKNQLIADLGSERRVNAQANDIPTDLVKAIVSIEDHRFFDHRGIDTIRILGAFLRNLQSNSLQGGSTLTQQLIKLTYFSTSTSDQTISRKAQEAWLAIQLEQKATKQEILTYYINKVYMSNGNYGMQTAAQNYYGKDLNNLSLPQLALLAGMPQAPNQYDPYSHP | not soluble |
| GSHMASFNGVSEAELLTKTLPDILTFNLDIVIIGINPGLMAAYKGHHYPGPGNHFWKCLFMSGLSEVQLNHMDDHTLPGKYGIGFTNMVERTTPGSKDLSSKEFREGGRILVQKLQKYQPRIAVFNGKCIYEIFSKEVFGVKVKNLEFGLQPHKIPDTETLCYVMPSSSARCAQFPRAQDKVHYYIKLKDLRDQLKGIERNMDV | soluble |
| MGSDKIHHHHHHMHEDKNDIFESIDTEDFDNKTEEECLELVRKNGLNLIYIKNQTEEICLEAVRQNCNAIKCVQNQTEKICIEAVKQDWRMLEFVEEPTEEICMLAINQDGTALKYIENQTEELCLRAVEKNGAALEYVKEQTEEICIEAVRNSEFGLARVKNQTEKICMEAVKHCSYNLKWVENQTEEICMEAVRQNGLDLKFVKNQTETICLRAVRQNGMALEFVKEQTVGICLKAVRQYGMALKFVKEQTEEICTEAIKQDKRALSFVKGDKEKYKALYDNNEPFAKRYVRNVIEKENRALIKKGEENAKIKIAGKLYDRGMSFEDISDIVEIEISKLKVSLGVF | not soluble |
| MAQSVPPGDIQTQPGTKIVFNAPYDDKHTYHIKVINSSARRIGYGIKTTNMKRLGVDPPCGVLDPKEAVLLAVSCDAFAFGQEDTNNDRITVEWTNTPDGAAKQFRREWFQGDGMARRKNLPIEYNP | not soluble |
| MRSHNLFGDMCEAFMTKYVMTELRPKTQTLYKSTFNKYVTPYKNIDIERYKYTDWIAYFDWVKKESSSANAGSVLKRFKAVANWAKARGQIKHSHLIDIPIKLEHHHHHH | not soluble |
| MSNEGSREESREPEAREGKSDEIFEVEKILAHKVTDNLLVLQVRWLGYGADEDTWEPEEDLQECASEVVAEYYKKLKVTDKTELIELLQKQIKKNKSQKSKKRSKTVSDHESNHDSDGSYGTPKTSKKSKKSAKNETPVSSKVPKVPTKAALKSYEATVSGPVAPNNAKKAAMEVRDTRRNWLDEESSDDEAETTAPLSDVEKIASKVKVVKAVEEKAEEPVKRPSTPPKPREVVIKKDPSESPVASASSVIPTSKRKSINAETSNGRQRTLAPPVIVKDETTWTVDGIARHTDVDNTKTKLILMTNSATGERKVVEGREAFELDGWALAKYLLDRCEF | soluble |
| MKQYGFYVDSSRCSGCKTCQVSCKDNKDLDVGPKLRRVYEYGGGSWVKEGESWHHDTFTYYLSIACNHCDEPVCVSGCPTGAMHKRKEDGLVVVDDSVCVGCRYCEMRCPYGAPQFDTQANVMRKCDGCLDRLENNLRPICVDSCPQRALDFGPVDELRAKYGTENQIAPLPSASFTHPNLIIKPHPKARPTGDTEGAIMNIREVRHA | not soluble |
